Reference: the domain aggregation screens of Martell et al. (2025)

Experiment: soluble fraction after stress (log2 fold change); higher = more stays soluble; pooled small domains, quantitative proteomics
Settings: stress: 50 degC
In short: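 The measure of aggregation propensity here is the base-two logarithm of the fold change in the soluble amount of each protein after stress. A higher value means more of that protein stays in solution. Stress was applied at 50°C to pooled libraries of small protein domains, read out by high-throughput quantitative proteomics.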

Sequence | soluble fraction (log2)
HMLEQEQFESKLLKAINNINETQRIAFLMHRIDGKKYAEIASELNISVKAVEKRIHLALIELKKEIENF | -0.871
HMVTVNAFGKSGPEPAAMTKEALAKGADEVRVIVDSPTAAASVRDFLIGAGLRVQLQDDEGQLIVVGEKK | 0.215
HMAGTKRAENIEIQKLTEVLEARLDSVGFFWPDHKAESMIMTLRNMISRLPLTEADVRVFHGIIKSLADK | -0.527
HMNPNPFVNLSPRELEVLNLLFKGYGVLEISNELNIGQTTASTFKSRILKKTSTHSVVELIKLAEQYGFIP | -0.508
HMPAEEVPLYKAVVVTTPPNRLRVRFSPAGDFKRWLQSGEEVDVYQELGDWRRIEPNGWSSAEWLQRVG | -0.157
HMNNILNYTIAELMEILKIDDLETENVINSSNNLINKSINENNFPLAEFYEDVKNNLIEFIETFDS | -0.632
HMAQISDESALYDLVKSVLDANPQSIADYKAGRDRALGFLMGQAMKLSKGKANPPVINKILKEMLDK | 0.0791
HMQEKQIIDGREFYIHQVERGITLYSIAKQYNVKVADIQAENPFLEAGLQPGQTLKIPLDKVETVQEIK | 0.125
HMLTSIDQMLKLAMPDSDITVSKMNGLILLTGTVKAPEDAAEAERLVQAFSAPPPGQPPVTVVSRLRTA | 0.0549
HMYHPGFEALREVARQGSFIKAARALGISGPAVSKQIKSLEARLNLVLLHRTTRAVTLTEAGQRLTEILD | -2.07
HMRRATLERLANNTAEKAIRYKRSLALEPMNPQERRIIHAALQEVEGVSTHSVGTEPNRKVIVVPDGV | -0.0677
HMQQRTVEHVDTAVEALALSIGERAGVDLPYMAHLTGKTQEDLIEDLTGVIFPVPGTEPLRYVTADDYLS | 0.028
HMVVKSPLEMAFDKFREMRKKIRKPMTERAEELIWKELSKLAGEDSDLKIEILEQSIRNGWQDVYAVK | -0.265
HMEIEETKKNSRTKIPENFDYKLINGLSNEIRAKLELIRPIDLLQASRIDGMTPAALTLVHLWIKKYSG | -0.338
HMLKPKDLHLGDSVRVLSLNLKGTVSSLPDTKGFLFVQMGIMRSKLHISDLQLIDEPVITAP | -0.128
HMTEEPISDGIKKLVEEWENIEGNLIMIFHGIQKHYGYVPRNVAKYVSEAIDVPLTRIYEILTFYNYFTM | 0.142
HMNPSPYLRRHLSGDWGDLDEDDRRSNDAALASGEARLLSSYQVDPDLKLWIITEWDRSVTTLLLPSE | -0.0802
HMKNYYELLGVAREASQDQIKKAYRKLARKYHPDVSKEADAETRMQELNVAYDTLSDAEKKREYDFQLDHP | 0.00768
HMAFKNGLLQTSKKVTLVRKVDGVTMRFDSLRAASVFLGRNKGYLSNVIKNGRTLDNYEIVVGE | -0.991
HMSLLTIDELSQATGVSVRTLRYYVSSGVLDKPTGETRNARYGTHHLDQVRNIKKLQEEGLTLNRILEIKK | -1.65
HMVAGHLQEKNGYFYIVLNYTNHEGKRKSKWITTGLTVKGNKKRAQDLLQEARKTFVPDIPT | -1.19
HMEAVLTISPGMYSESVSAELVRLGIITNQKEFNSYLVNNGYAERIQTGDFKIKADMSYDEIARIITK | 0.231
HMAVDAASSTIGKNVEVSVANEKGDYENFNGKVKSASIKDGVVYLELELKDTGEIKEVPYSSLTKIT | 0.0595
HMGEILYSGVLKGGDGPEATKLALEKFLGEANTQVAGRIGVQPETQVIWLSREAVDSAASTLSQHKGNMYV | -0.085
HMNINHEINIKSKKKISILENNPNLSQFYLTKNPDQYNYNLVFSDKSELNKLKEKLESDNEVEDIDIRYG | 0.06
HMDSDMGQQLKTLLTVGTFMSSKELKAIAQQLGLKKPTDLKEWVELESGTQRIEGKPTKGYWIKMNDINN | 0.159
HMPAGWIPARIRLADYPQLRSLAWHVQGIDTLTPTEALDIYERNARHLDAQAMSAQEQDLLASLRLALS | -0.839
HMGRELSDLELSLLRILDDKIPLLIDEAADRLQLPVAQVLSAVTIMEIDGLIRREGMRKYLRTVEVEETK | -0.499

Sequence | soluble fraction (log2)
HMITNLEPFKDFVRGFSGLHLEGVGQEKLAAALDERIRKTGSANERDYLQLIMEDVAERLKLINILT | 0.0546
HMTTGEIIQRERTRLGLSQEKLAEQVGVSRQAVSKWELGDAVPDTDKLVPLARTLGISVDTLLD | 0.0247
HMVAEKSKIEMAIDSINKLAKELADSGVAKKTISDIIKSVSGSANYNKITDFEVATDVYKELVALKNKEDT | 0.384
HMGISSESIKTFIREIVENEDPKAPLSDQTMVELLAERGIDISRRTVAKYRDEMNLPSSSKRKR | 0.462
HMQLPIGDVKLSVEHLSSGTALQDISFEVHRGEIFGFLGLVGAGRSETAETIFGLREKTDGKISIDGTVL | -0.214
HMEISLAETLRSSLHMILGWYQNTGDKKLLELIRLHLQAYVNTGNSLNPEMEEIRAALETLGEGKEAFRP | -0.999
HMHKKQEVQDSIDAAEEFMRASGVPAELITSKRAYAVKAIYADAVDKGTPDEIVKKDGMIVALISQMRS | 0.267
HMLSPPWYEYHRKVQAMFGRDPEVHIKDLDDLGDGKFSYMILVYNKEKAEAIKAILPQKVEMGNVTIETAI | 0.361
HMENMETSDIVARYSNMPGGIIEAFHEIVDRHGFLSQEAIIEAARGFGISVAEAYGVATFYSMFS | -0.336
HMNSKMTYSELITSMENKEVESVKISSSGDVASVKLKNSKTEKEVKIPSLDSFMTYTEQYLKTGEITLEE | 0.175
HMNIQPAMLNAANGGVAWKERGISMSQIMKRNAHTAEGSQKLWDYAFENFFQKNIDAGNIRDDR | 0.0644
HMERLKYSQVVDLFKGEQVKSFVLDESNQLKMELQDGSTVSYKLRSFEQFYLDLSDTVKEQKESGIITDYD | -0.746
HMDLGLTDDQRLVYGLLSPTVPRSSGELLGMVDFGRSKLSRILKELIELGQVFTVGVGRGLKYKRG | -0.307
HMEVFTPSEANVAEAREILAAMATAKANGEGATVYKGRLVDIASIKQAEVIVRQSEMIQSAH | 0.408
HMVITATYTDFMDALEADEVKQVQFSSTEINYTIEKGGHVQYFKTGVVDNPQLPQILREKGVTYAAEIP | -0.0375
HMQTEFVISSGEQPKRLDVFLLQREPYLSRAALQRMIAAGWVRVNNHLAKSSQRIKAGDVIVFD | -1.41
HMAWIAVATKEDYSEYEWKELSPTTDWSTQTFDLGDLAGKTIYAVKMFFDHDTDVKDYKFNLGQLSITSN | -0.266
HMKDASEFLGAKGKTITPLRPTGAAVINGEKVDVLAEGEFIPKNAEIVVIKVEGSKIIVRNANN | 0.143
HMGYTTSFVVQLKNAVSISFDEIDQNLRKLPGVEDVVIVEEAAMAYLKVDRQHFREEQLAHFEFVRQ | -0.29
HMNLSAREWTSADGSRTFQGELTGFQDGKVKVRRSDGKSLVFAIELLSESDQQFIKTNQLVIAKKDED | 0.161
HMAKITERVMGSAALRDYDPNYLPDEVLKALDGYPPFDGYVYKDGILYARVKIGDTFFIIPPI | -2.27
HMENYQIETFVKFIEESTGEDGVAFEDLFQNFTSRPAVITMFLALLEALRRNSIRIFQKEEFSQILIYPK | 0.084
HMKDKSEKTKKLIFEAAFKIIREEGFSELSANKIAQVASVSKGVIFHHFSQMDDLYLFMLDTL | 0.255
HMQLGEEAGDELVAIVRSVINDNDKALADYLAGKSSALKFLLGQVMRQTKGRADHALVQSLLEAELEAL | -0.169
HMREQAHEVAGKLGYPVMVKASAGGGGKGIRIVRTEDELDQAFEAAQSETKAAFGDDQMYMEKVI | 0.00859
HMTSPLQIHPNPATKHIELGLESPEVVLIKDINGKTVYQELVAPNQYIDIEHLKNGIYFIESKNKFGKLIK | 0.169
HMINEVVSLRDVPSFIGKAKRDVIRIAEENNLKIKINGNGYVKEQTPNPGNKYKSNQEIKVFLEPG | 0.0894
